These results are taken from patent US20250270343A1 (Alector, published 2025).

The target of assay [1] is T1, mouse GPNMB endogenously expressed on B16F10 cells (mouse, UniProt Q99P91 23-574).
T1 construct: whole, on cells; also called moGPNMB
T1 sequence (looked up): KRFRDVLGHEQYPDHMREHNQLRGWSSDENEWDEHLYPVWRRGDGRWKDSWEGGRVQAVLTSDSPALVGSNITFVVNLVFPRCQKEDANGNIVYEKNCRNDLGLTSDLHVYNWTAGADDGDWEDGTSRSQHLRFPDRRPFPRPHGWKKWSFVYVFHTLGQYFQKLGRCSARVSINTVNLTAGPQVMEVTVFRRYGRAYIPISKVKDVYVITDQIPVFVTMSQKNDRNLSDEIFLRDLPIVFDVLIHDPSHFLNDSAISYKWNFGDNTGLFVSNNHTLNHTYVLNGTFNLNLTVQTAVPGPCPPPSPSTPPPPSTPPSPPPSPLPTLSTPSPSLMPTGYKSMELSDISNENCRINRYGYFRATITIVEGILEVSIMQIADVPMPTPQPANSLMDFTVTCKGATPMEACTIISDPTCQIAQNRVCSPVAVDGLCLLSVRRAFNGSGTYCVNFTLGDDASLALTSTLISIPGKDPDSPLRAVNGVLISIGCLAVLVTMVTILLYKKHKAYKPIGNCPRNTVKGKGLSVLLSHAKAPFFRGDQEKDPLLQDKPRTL
Nature of the assay: FACS titration on B16F10 cells (endogenous mouse GPNMB) at 4 C; fluorescent secondary antibody; MFI-APC against soluble antibody (nM). The method, then:
(§1) Cell-based binding measurements were also performed to measure the apparent affinities of anti-GPNMB antibodies of the present disclosure to cell-surface expressed GPNMB. Serial dilutions of the monoclonal anti-GPNMB antibodies were added to 100,000 Freestyle293-huGPNMB+ or B16F10 cells and allowed to achieve binding equilibrium at 4° C. After addition of fluorescently labeled secondary antibody and brief washing steps, MFI values as a function of titrated antibody concentration was recorded via FACS analysis. Curves were fit using nonlinear regression analysis with Graphpad Prism 6 software.

The target in assay [2] is T2, soluble mouse GPNMB-Fc polypeptide (mouse IgG2A Fc) (mouse, UniProt Q99P91 23-502).
T2 construct: extracellular domain; bought (R&D System); also called moGPNMB-Fc; mGPNMB-Fc; not shown: Fc region of mouse IgG2A
T2 sequence (looked up): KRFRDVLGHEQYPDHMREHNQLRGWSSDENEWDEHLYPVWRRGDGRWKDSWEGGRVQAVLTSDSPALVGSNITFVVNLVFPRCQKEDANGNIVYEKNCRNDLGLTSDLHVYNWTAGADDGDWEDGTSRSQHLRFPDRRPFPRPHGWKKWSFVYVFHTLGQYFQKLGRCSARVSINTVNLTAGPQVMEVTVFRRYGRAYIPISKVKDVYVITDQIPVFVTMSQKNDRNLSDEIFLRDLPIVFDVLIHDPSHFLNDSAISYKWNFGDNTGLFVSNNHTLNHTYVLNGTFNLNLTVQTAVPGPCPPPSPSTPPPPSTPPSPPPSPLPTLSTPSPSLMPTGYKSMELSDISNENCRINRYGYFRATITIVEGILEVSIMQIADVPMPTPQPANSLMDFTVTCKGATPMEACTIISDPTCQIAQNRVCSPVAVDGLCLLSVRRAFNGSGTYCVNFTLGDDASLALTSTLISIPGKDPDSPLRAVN
The experiment in a line: FACS, blocking of moGPNMB-Fc binding to SVEC4-10 cells. The method, then:
(§2) Purified full-length anti-GPNMB antibodies of the present disclosure were evaluated for their ability to block binding of moGPNMB-Fc to SVEC4-10 cells to determine the ligand blocking potency of each anti-GPNMB monoclonal antibody. Briefly, 2 μg/mL moGPNMB-Fc (mouse IgG2A Fc) diluted in binding buffer was pre-complexed with increasing concentrations of anti-GPNMB antibody of the present disclosure or human IgG1 isotype control antibody in 96-well plates. Subsequently, 100,000 SVEC4-10 cells were added per well and incubated on ice for 30 minutes. Soluble moGPNMB-Fc bound to cell surface was detected with fluorescent anti-mouse IgG2A secondary antibody and measured on FACSCanto. (FIG. 5A and FIG. 5B) IC50 values (for antibodies that block moGPNMB-Fc cell binding) and EC50 values (for antibodies that enhance moGPNMB-Fc cell binding) based on changes in MFI values were calculated (average+standard error) for each anti-GPNMB antibody and listed in Table 6. In Table 6, NA indicates no activity. […] In all cases, certain anti-GPNMB antibodies of the present disclosure blocked soluble GPNMB binding to cells, while other anti-GPNMB antibodies of the present disclosure enhanced soluble GPNMB binding to cells.
On the technique in general: Flow cytometry measures light scatter and fluorescence of single cells or particles in a stream.

Assay [3] has as its target T1, mouse GPNMB endogenously expressed on …. The experiment in a line: FACS, B16F10 cells; single-point FACS staining of B16F10 cells; weak signal, 1.7-fold over background.
The target of assay [4] is T3, full-length untagged human GPNMB expressed on cells (human, UniProt Q14956 23-572).
T3 sequence: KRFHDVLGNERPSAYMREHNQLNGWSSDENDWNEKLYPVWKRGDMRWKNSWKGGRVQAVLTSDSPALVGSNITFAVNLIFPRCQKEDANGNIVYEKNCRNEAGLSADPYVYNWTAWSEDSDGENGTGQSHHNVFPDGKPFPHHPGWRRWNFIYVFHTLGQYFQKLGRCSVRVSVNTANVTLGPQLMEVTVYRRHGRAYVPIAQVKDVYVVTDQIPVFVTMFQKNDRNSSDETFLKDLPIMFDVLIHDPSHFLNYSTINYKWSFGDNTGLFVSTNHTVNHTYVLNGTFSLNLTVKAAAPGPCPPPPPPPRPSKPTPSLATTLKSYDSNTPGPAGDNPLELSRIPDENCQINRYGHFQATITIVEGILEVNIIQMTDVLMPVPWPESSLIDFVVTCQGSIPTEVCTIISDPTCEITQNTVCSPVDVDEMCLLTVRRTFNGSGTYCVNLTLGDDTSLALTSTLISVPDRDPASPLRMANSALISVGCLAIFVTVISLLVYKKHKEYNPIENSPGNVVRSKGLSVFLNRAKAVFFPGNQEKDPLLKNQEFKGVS
Nature of the assay: cell-based or functional assay.

The target of assay [5] is T1, mouse GPNMB endogenously expressed on …. The experiment in a line: FACS titration, B16F10 cells. The method, then: as §1
Assay [6] addresses T2, soluble mouse GPNMB-Fc polypeptide …. The experiment in a line: FACS, enhancing of moGPNMB-Fc binding to SVEC4-10 cells. The method, then: as §2

The term EC50 (read off the curve) denotes the concentration giving half of the maximal effect. High values mean a need for much substance, low ones an effect from little substance. In general, IC50 refers to the point on the concentration scale where inhibition reaches its midpoint. By EC50 is commonly meant the concentration that produces a half-maximal response.

Changes are numbered by the printed parent chain.

B1: anti-GPNMB antibody GPN-48 (antibody, human IgG1, V domains shown)
VH: QVQLQQSGPELVKPGASVKLSCRASGYGFSSFWMNWVKQRPGKGLEWIGRIYPGKGDTLYNGKFKDKATLTADESSSTAYMQLSSLTSEDSAVYFCARSIYYYDYWYFDVWDTGTTVTVSS
VL: DIVMTQSHKFMSTSVGDRVNITCKASQDVNSAIAWYQQKPGQSPKLLIYSASYRFIGVPDRFTGSGSGTGFTFTISSVQAEDLAVYYCQQHYTTPLTFGAGTKLELK
notes: chimeric
Take B1: in assay [1], the “EC50 (read off the curve)” value was about 1 nM. The same molecule registered an IC50 in assay [2] of 1.2 nM. Further, in assay [3], the “MFI fold over background” value worked out at 1.7 fold.

B2: anti-GPNMB antibody GPN-52 (antibody, human IgG1, V domains shown)
VH: DVQLQESGPGLVKPSQTVFLTCTVTGISITTGNYRWSWIRQFPGNKLEWIGYIYYSGTITYNPSLTSRITITRDTPKNEFFLEMNSLTAEDTATYYCARDLTHWYFDVWGTGTTVTVSS
VL: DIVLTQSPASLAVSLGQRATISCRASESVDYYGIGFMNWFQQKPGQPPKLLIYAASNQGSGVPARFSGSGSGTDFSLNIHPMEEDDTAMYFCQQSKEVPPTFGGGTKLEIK
notes: chimeric
Take B2: the IC50 in assay [2] was found to be 1 nM. Further, the “IC50 (read off the curve) of the loss of cell surface GPNMB (MFI), internalization assay on human macrophages” value in assay [4] is about 2 nM. The EC50 in assay [5] was found to be 1.6 nM.

B3: anti-GPNMB antibody GPN-61 (antibody, human IgG1, V domains shown)
VH: B2 VH with I69T, E79Q, N85S, Y96F, T102R
VL: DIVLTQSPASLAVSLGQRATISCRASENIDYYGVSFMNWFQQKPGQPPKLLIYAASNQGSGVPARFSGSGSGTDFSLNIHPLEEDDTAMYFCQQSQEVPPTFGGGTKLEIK
notes: chimeric
On to B3, for which, in assay [1], the “EC50 (read off the curve)” value is about 0.1 nM. In assay [2], this molecule gave an IC50 of 0.77 nM. The “MFI fold over background” value in assay [3] was 1.7 fold. For the same molecule, the “IC50 (read off the curve) of the loss of cell surface GPNMB (MFI), internalization assay on human macrophages” value in assay [4] is about 2 nM.

B4: anti-GPNMB antibody GPN-65 (antibody, human IgG1, V domains shown)
VH: QLQLQQSGTEVVKPGASVKIPCKASGYAFSSYWMNWVKQRPGKGLEWIGQIYPGDGDTNDNGKFEGKATLTVDKSSNTAYIQLSSLTSEDSAVYFCARSPLHLRGSMDYWGQGTSVTVSS
VL: SIVMTQTPKFLLVSAGDRVTITCKASQSVSNDVAWFQQKPGQSPELLIYSASNRYTGVPDRFTGSGYGTDFTFTISTVQAEDLAVYFCQQNYYSPFTFGGGTRLEIK
notes: chimeric
In the case of B4, the EC50 is 4.27 nM in assay [6] and 3.23 nM in assay [5]. Also, the “IC50 (read off the curve) of the loss of cell surface GPNMB (MFI), internalization assay on human macrophages” value in assay [4] is about 2 nM.

B5: anti-GPNMB antibody GPN-42 (antibody, human IgG1, V domains shown)
VH: DVKLVESGEDLVKPGGSLKLSCAASGFTFSSYAMSWVRQTPEKRLEWVAYISSGGDYIYYADTVKGRFTISRDNARNTLYLQMSSLKSEDTAMYYCTRDRYYDYDVRDYYTMDYWGQGTSVTVSS
VL: DVMMTQTPLSLPVSLGDQASISCRSSQSLVHSNGNTYLHWFLQKPGQSPKLLIFRVSNRFSGVPDRFSGRGSGTDFTLKISRVEAEDLGVYFCSQTTHVPRTFGGGTTLEIK
notes: chimeric
With B5, the values for the EC50 in assay [6] and in assay [5] were 1.19 nM and 76.5 nM, respectively.
